For assay [1], the target named is T1, human IL-11 (AAH12506.1, Pro22-Leu199) (human, UniProt P20809 22-199).
T1 construct: The range Pro22-Leu199 counts on AAH12506.1; The Octet runs say only 'human IL-11'; also called hIL-11
T1 chain: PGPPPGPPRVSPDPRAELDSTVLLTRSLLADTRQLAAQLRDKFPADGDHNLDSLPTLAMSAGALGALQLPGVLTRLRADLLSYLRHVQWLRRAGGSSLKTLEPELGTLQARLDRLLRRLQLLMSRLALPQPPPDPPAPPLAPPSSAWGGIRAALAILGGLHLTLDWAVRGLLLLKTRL
In words: BLI (Octet), antibody captured, human IL-11 in solution. The procedure: The affinity of the murine antibodies purified from the hybridoma supernatants was determined using an Octet QKe System instrument from Fortebio Inc. with an anti-mouse IgG Fc Capture biosensor to capture the Fc fragments of the antibodies, for which an anti-IL-11 antibody named “3C6-mFc” recombinantly expressed was used at the same concentration as a positive control. Specifically, a hybridoma supernatant was diluted with HBS-EP+ buffer (GE), and was allowed to pass through the surface of AMC probes (Cat: 18-5088, PALL), and so the antibody in the hybridoma supernatant was captured on the surface of the probes; then, human IL-11 diluted in the HBS-EP+ buffer (300 nM) was used as a mobile phase to react with the antibody captured on the surface of the probes. Both the binding and the dissociating were conducted for 300 seconds. When the experiment was finished, data from which response values of blank controls had been deducted was fitted using a 1:1 Langmuir binding model by software, and then kinetic constants for antigen-antibody binding were calculated. Binding signals were detected on the Octet QKe System instrument with Hy5C2, Hy8C8, Hy16B5, Hy18A10, and Hy18H10.
The affinity of hz18A10 and hz8C8 was determined according to the method provided in Example 1 using AHC bioprobes for capturing human Fc fragment instead, with other conditions unchanged. A recombinantly expressed anti-IL-11 antibody 3C6-hFc was used at the same concentration as a positive control.
(§1) Then, light and heavy chain expression vectors for preparing mutant antibodies were constructed according to the method for preparing the recombinant antibodies provided in Example 4, using the mutant sequences shown in Table 3 which accordingly were linked with human IgG1 constant regions (SEQ ID NO. 13, and SEQ ID NO.14). Subsequently, the light chain and the heavy chain were reasonably matched and co-transfected into eukaryotic cells for transient expression, and then recombination protein samples of the mutant antibodies were obtained through affinity purification. The samples obtained were tested for affinity on Fortebio Octet, according to the method for measuring affinity provided in Example 1.
(In general: Biolayer interferometry detects binding as a change in optical thickness at a sensor tip.)

Assay [2] has as its target T2, IL-11 (Cat. 12225-HNCE, Sino Biological Inc.) (UniProt P20809 22-199, limits assumed).
T2 sequence (looked up): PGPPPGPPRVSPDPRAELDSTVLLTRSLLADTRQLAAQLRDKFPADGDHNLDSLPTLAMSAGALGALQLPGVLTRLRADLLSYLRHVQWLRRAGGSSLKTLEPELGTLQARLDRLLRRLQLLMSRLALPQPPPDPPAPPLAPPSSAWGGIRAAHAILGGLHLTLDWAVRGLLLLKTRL
In words: cell-based or functional assay.

For assay [3], the target named is T2, IL-11 (Cat. 12225-HNCE, Sino Biological …). In words: competition ELISA, IL-11/IL-11Rα/GP130 complex. The procedure:
The activity of the recombinant murine anti-IL-11 antibodies for blocking the formation of IL-11/IL-11Rα/GP130 complex was analyzed via competition ELISA. IL-11Rα-His (NP_004503.1, Met1-Val363, C-terminus-6-His Tag) was firstly added into ELISA plates to be coated overnight. Next day, samples were prepared as follows. […] After co-incubating and washing, an HRP conjugated anti-human Fc secondary antibody was added to develop the color which was then detected.
as §1, with “1. Further, using the protocol provided in Example 3, hz8C8 and its affinity matured mutants were analyzed for their activity for blocking the formation of IL-11/IL-11Rα/GP130 complex.” for “1.”

These results are taken from patent publication US20250197488A1 (MABWELL SHANGHAI BIOSCIENCE, published 2025).

B1: hz8C8-VHm1 + hz8C8-VL (antibody, human IgG1, kappa, V domains shown)
VH: EVQLVESGGGLVQPGGSLRLSCAASGFTFSSFGMHWVRQAPGKGLEWVAYITPGSNTIYYADTVKGRFTISRDNAKNSLYLQMNSLRAEDTAVYYCAREYYSYDEGFAYWGQGTLVTVSS
VL: EIVLTQSPATLSLSPGERATLSCSVSSSISSNYLHWYQQKPGQAPRLLIYRTSNLASGIPARFSGSGSGTDFTLTISSLEPEDFAVYYCQQGVDVPFTFGQGTKLEIKR
notes: human IgG1 constant regions
As for B1, in assay [1], the Kd (in general, the equilibrium constant for the complex coming apart) was 0.613 nM; the koff (usually a measure of how fast the partners let go of each other) stood at 0.000472 s⁻¹; the kon (as a rule, the rate constant with which the complex forms) came to 770000 M⁻¹ s⁻¹. Also, in assay [2], the “Blocking activity (IC50), STAT3-luc reporter” value (“Blocking activity (IC50)” below) stood at 2.13 µg/mL. Also, in assay [3], the 50% inhibitory concentration (IC50) (usually the midpoint of a concentration-inhibition curve) was 2.09 µg/mL.

B2: hz8C8-VHm1 + hz8C8-VLm7-m3 (antibody, human IgG1, kappa, V domains shown)
VH: EVQLVESGGGLVQPGGSLRLSCAASGFTFSSFGMHWVRQAPGKGLEWVAYITPGSNTIYYADTVKGRFTISRDNAKNSLYLQMNSLRAEDTAVYYCAREYYSYDEGFAYWGQGTLVTVSS
VL: EIVLTQSPATLSLSPGERATLSCSVSDLIPSQYLHWYQQKPGQAPRLLIYGASNLASGIPARFSGSGSGTDFTLTISSLEPEDFAVYYCQQGVDVPFTFGQGTKLEIKR
notes: human IgG1 constant regions
Regarding B2, in assay [1], the dissociation constant (Kd) was determined as 0.0795 nM, the koff was found to be 8.99e-05 s⁻¹ and the kon came out at 1.13e+06 M⁻¹ s⁻¹. In assay [2], the “Blocking activity (IC50)” value came to 0.017 µg/mL. Moreover, in assay [3], the half-inhibitory concentration (IC50) turned out to be 0.73 µg/mL.

B3: hz8C8-VHm1 + hz8C8-VLm4 (antibody, human IgG1, kappa, V domains shown)
VH: EVQLVESGGGLVQPGGSLRLSCAASGFTFSSFGMHWVRQAPGKGLEWVAYITPGSNTIYYADTVKGRFTISRDNAKNSLYLQMNSLRAEDTAVYYCAREYYSYDEGFAYWGQGTLVTVSS
VL: EIVLTQSPATLSLSPGERATLSCSVSDLISSNYLHWYQQKPGQAPRLLIYRTSNLASGIPARFSGSGSGTDFTLTISSLEPEDFAVYYCQQGVDVPFTFGQGTKLEIKR
notes: human IgG1 constant regions
For B3, in assay [1], the equilibrium dissociation constant (Kd) was 0.161 nM, the koff came to 0.000141 s⁻¹ and the on-rate (kon) stood at 874000 M⁻¹ s⁻¹. Moreover, in assay [2], the “Blocking activity (IC50)” value is 0.098 µg/mL. The half-maximal inhibitory concentration (IC50) in assay [3] worked out at 0.846 µg/mL.

B4: hz8C8-VHm1 + hz8C8-VLm7 (antibody, human IgG1, kappa, V domains shown)
VH: EVQLVESGGGLVQPGGSLRLSCAASGFTFSSFGMHWVRQAPGKGLEWVAYITPGSNTIYYADTVKGRFTISRDNAKNSLYLQMNSLRAEDTAVYYCAREYYSYDEGFAYWGQGTLVTVSS
VL: EIVLTQSPATLSLSPGERATLSCSVSDLIPSQYLHWYQQKPGQAPRLLIYRTSNLASGIPARFSGSGSGTDFTLTISSLEPEDFAVYYCQQGVDVPFTFGQGTKLEIKR
notes: human IgG1 constant regions; also called hz8C8m7
For B4, in assay [1], the dissociation constant (Kd) was 0.00429 nM, the koff amounted to 3.52e-06 s⁻¹ and the kon was determined as 822000 M⁻¹ s⁻¹. Also, the “Blocking activity (IC50)” value in assay [2] turned out to be 0.017 µg/mL. The IC50 in assay [3] was determined as 0.85 µg/mL.

B5: hz8C8-VHm1 + hz8C8-VLm1 (antibody, human IgG1, kappa, V domains shown)
VH: EVQLVESGGGLVQPGGSLRLSCAASGFTFSSFGMHWVRQAPGKGLEWVAYITPGSNTIYYADTVKGRFTISRDNAKNSLYLQMNSLRAEDTAVYYCAREYYSYDEGFAYWGQGTLVTVSS
VL: EIVLTQSPATLSLSPGERATLSCSVSSSIPSNYLHWYQQKPGQAPRLLIYRTSNLASGIPARFSGSGSGTDFTLTISSLEPEDFAVYYCQQGVDVPFTFGQGTKLEIKR
notes: human IgG1 constant regions
For the molecule B5, in assay [1], the dissociation constant Kd is 0.178 nM, the koff amounted to 0.000125 s⁻¹ and the kon was determined as 705000 M⁻¹ s⁻¹. Moreover, the “Blocking activity (IC50)” value in assay [2] worked out at 0.804 µg/mL. Besides, the IC50 in assay [3] is 1.24 µg/mL.

B6: hz8C8-VHm1 + hz8C8-VLm6 (antibody, human IgG1, kappa, V domains shown)
VH: EVQLVESGGGLVQPGGSLRLSCAASGFTFSSFGMHWVRQAPGKGLEWVAYITPGSNTIYYADTVKGRFTISRDNAKNSLYLQMNSLRAEDTAVYYCAREYYSYDEGFAYWGQGTLVTVSS
VL: EIVLTQSPATLSLSPGERATLSCSVSSLIPSKYLHWYQQKPGQAPRLLIYRTSNLASGIPARFSGSGSGTDFTLTISSLEPEDFAVYYCQQGVDVPFTFGQGTKLEIKR
notes: human IgG1 constant regions
With B6, in assay [1], the equilibrium dissociation constant (Kd) was found to be 0.0412 nM, the koff stood at 2.23e-05 s⁻¹ and the association rate constant (kon) came to 543000 M⁻¹ s⁻¹. The “Blocking activity (IC50)” value in assay [2] was determined as 0.076 µg/mL. Also, the IC50 in assay [3] worked out at 1.01 µg/mL.

B7: hz8C8-VHm1 + hz8C8-VLm5 (antibody, human IgG1, kappa, V domains shown)
VH: EVQLVESGGGLVQPGGSLRLSCAASGFTFSSFGMHWVRQAPGKGLEWVAYITPGSNTIYYADTVKGRFTISRDNAKNSLYLQMNSLRAEDTAVYYCAREYYSYDEGFAYWGQGTLVTVSS
VL: EIVLTQSPATLSLSPGERATLSCSVSELLSTNYLHWYQQKPGQAPRLLIYRTSNLASGIPARFSGSGSGTDFTLTISSLEPEDFAVYYCQQGVDVPFTFGQGTKLEIKR
notes: human IgG1 constant regions
As to B7, in assay [1], the dissociation constant (Kd) turned out to be 0.479 nM, the koff worked out at 0.000406 s⁻¹ and the kon was determined as 848000 M⁻¹ s⁻¹. The “Blocking activity (IC50)” value in assay [2] worked out at 0.1 µg/mL. Further, the half-inhibitory concentration (IC50) in assay [3] stood at 0.838 µg/mL.

B8: hz8C8-VHm1 + hz8C8-VLm7-m2 (antibody, human IgG1, kappa, V domains shown)
VH: EVQLVESGGGLVQPGGSLRLSCAASGFTFSSFGMHWVRQAPGKGLEWVAYITPGSNTIYYADTVKGRFTISRDNAKNSLYLQMNSLRAEDTAVYYCAREYYSYDEGFAYWGQGTLVTVSS
VL: EIVLTQSPATLSLSPGERATLSCSVSDLIPSQYLHWYQQKPGQAPRLLIYDASNLASGIPARFSGSGSGTDFTLTISSLEPEDFAVYYCQQGVDVPFTFGQGTKLEIKR
notes: human IgG1 constant regions
As to B8, in assay [1], the dissociation constant (Kd) is 0.0347 nM, the off-rate (koff) was determined as 3.7e-05 s⁻¹ and the kon came out at 1.07e+06 M⁻¹ s⁻¹. Also, the “Blocking activity (IC50)” value in assay [2] is 0.024 µg/mL. Moreover, the IC50 in assay [3] is 0.74 µg/mL.

B9: hz8C8-VHm1 + hz8C8-VLm3 (antibody, human IgG1, kappa, V domains shown)
VH: EVQLVESGGGLVQPGGSLRLSCAASGFTFSSFGMHWVRQAPGKGLEWVAYITPGSNTIYYADTVKGRFTISRDNAKNSLYLQMNSLRAEDTAVYYCAREYYSYDEGFAYWGQGTLVTVSS
VL: EIVLTQSPATLSLSPGERATLSCSVSSLISSNYLHWYQQKPGQAPRLLIYRTSNLASGIPARFSGSGSGTDFTLTISSLEPEDFAVYYCQQGVDVPFTFGQGTKLEIKR
notes: human IgG1 constant regions
In the case of B9, in assay [1], the equilibrium dissociation constant (Kd) worked out at 0.636 nM, the off-rate constant (koff) was determined as 0.000496 s⁻¹ and the on-rate constant (kon) turned out to be 780000 M⁻¹ s⁻¹. In assay [2], the “Blocking activity (IC50)” value is 0.125 µg/mL. Further, the IC50 in assay [3] came to 0.943 µg/mL.

B10: hz8C8-VHm1 + hz8C8-VLm2 (antibody, human IgG1, kappa, V domains shown)
VH: EVQLVESGGGLVQPGGSLRLSCAASGFTFSSFGMHWVRQAPGKGLEWVAYITPGSNTIYYADTVKGRFTISRDNAKNSLYLQMNSLRAEDTAVYYCAREYYSYDEGFAYWGQGTLVTVSS
VL: EIVLTQSPATLSLSPGERATLSCSVSSSISSKYLHWYQQKPGQAPRLLIYRTSNLASGIPARFSGSGSGTDFTLTISSLEPEDFAVYYCQQGVDVPFTFGQGTKLEIKR
notes: human IgG1 constant regions
Turning to B10, in assay [1], the equilibrium dissociation constant (Kd) came to 0.388 nM, the off-rate constant (koff) stood at 0.000229 s⁻¹ and the kon was 590000 M⁻¹ s⁻¹. Besides, in assay [2], the “Blocking activity (IC50)” value was 0.038 µg/mL. Besides, the IC50 in assay [3] stood at 1.14 µg/mL.

B11: hz8C8-VHm1 + hz8C8-VLm7-m1 (antibody, human IgG1, kappa, V domains shown)
VH: EVQLVESGGGLVQPGGSLRLSCAASGFTFSSFGMHWVRQAPGKGLEWVAYITPGSNTIYYADTVKGRFTISRDNAKNSLYLQMNSLRAEDTAVYYCAREYYSYDEGFAYWGQGTLVTVSS
VL: EIVLTQSPATLSLSPGERATLSCSVSDLIPSQYLHWYQQKPGQAPRLLIYRASNLASGIPARFSGSGSGTDFTLTISSLEPEDFAVYYCQQGVDVPFTFGQGTKLEIKR
notes: human IgG1 constant regions
In the case of B11, in assay [1], the Kd amounted to 0.13 nM, the off-rate (koff) worked out at 0.000136 s⁻¹ and the kon worked out at 1.05e+06 M⁻¹ s⁻¹. In addition, the “Blocking activity (IC50)” value in assay [2] came to 0.068 µg/mL. For the same molecule, in assay [3], the half-maximal inhibitory concentration (IC50) is 0.58 µg/mL.
